# Measurements taken from publication PMC10349882, “High resolution structures define divergent and convergent mechanisms of archaeal proteasome activation” (Communications Biology, 2023).
# Positions count from the first letter of the chain named. Names and notes keep the numbering of the source.
# B1: T20S α subunit, wild type (natural protein, Thermoplasma acidophilum)
# chain: MQQGQMAYDRAITVFSPDGRLFQVEYAREAVKKGSTALGMKFANGVLLISDKKVRSRLIEQNSIEKIQLIDDYVAAVTSGLVADARVLVDFARISAQQEKVTYGSLVNIENLVKRVADQMQQYTQYGGVRPYGVSLIFAGIDQIGPRLFDCDPAGTINEYKATAIGSGKDAVVSFLEREYKENLPEKEAVTLGIKALKSSLEEGEELKAPEIASITVGNKYRIYDQEEVKKFL
# notes: Proteasome subunit alpha, Thermoplasma acidophilum; Subunit of m1, written alone for the subunit-subunit rows of the structures; also called proteasome α-subunit
# B2: T20S β subunit (natural protein, Thermoplasma acidophilum, UniProt P28061 9-211, looked up)
# chain: TTTVGITLKDAVIMATERRVTMENFIMHKNGKKLFQIDTYTGMTIAGLVGDAQVLVRYMKAELELYRLQRRVNMPIEAVATLLSNMLNQVKYMPYMVQLLVGGIDTAPHVFSIDAAGGSVEDIYASTGSGSPFVYGVLESQYSEKMTVDEGVDLVIRAISAAKQRDSASGGMIDVAVITRKDGYVQLPTDQIESRIRKLGLIL
# notes: Proteasome subunit beta, Thermoplasma acidophilum; Subunit of m1, written alone for the subunit-subunit rows of the structures
# B3: T20S α subunit L81Y (natural protein, Thermoplasma acidophilum)
# chain: B1 chain with L81Y
# notes: Proteasome subunit alpha, Thermoplasma acidophilum; α subunit of the mutant 20S whose cryo-EM structure is solved here; also called T20S-αL81Y; T20S L81Y
# What was measured:
# [1] = target: the molecule itself; assay: cryo-EM structure; WT T20S, 0.5 mg/mL in 50 mM Tris pH 7.4, 150 mM NaCl; D7 symmetry; closed gate
# T20S α subunit L81Y = target: B3; assay: cryo-EM structure; T20S-αL81Y, 0.5 mg/mL in 50 mM Tris pH 7.4, 150 mM NaCl; D7 symmetry; partially open gate; conditions: both partners purified
# [2] = target: the molecule itself; assay: as above
# [3] = target: B1; assay: cryo-EM structure; WT T20S, 0.5 mg/mL in 50 mM Tris pH 7.4, 150 mM NaCl; D7 symmetry; closed gate; conditions: both partners purified
Binder,binding result [1],binding result (T20S α subunit L81Y),binding result [2],binding result [3]
B1,binds,–,–,–
B2,–,binds,binds,binds
B3,–,–,binds,–
